Measured values: publication PMC2173104

Columns and labels:
Assay in all cases: two-hybrid
[1] = target: Gal4 binding domain Iqg1p fusion protein, Iqg1p (1–1495) (S. cerevisiae) (UniProt Q12280)
[2] = target: Gal4 binding domain fusion of Iqg1p (1–823) (S. cerevisiae) (UniProt Q12280)
[3] = target: Gal4 binding domain fusion of Iqg1p (295–823) (S. cerevisiae) (UniProt Q12280)

Row | Substance | beta-galactosidase activity [1] [Miller units] | beta-galactosidase activity [2] [Miller units] | beta-galactosidase activity [3] [Miller units]
1 | Cdc12p in pGAD-C2 (from UniProt P32468 1-407) (natural protein) | 23 | – | –
2 | Myosin light chain protein Mlc1p in pGAD-C2 (from UniProt P53141 1-149) (natural protein) | 98.7 | 107 | 408
